The text below walks through data of US20050255104A1.

This assay addresses human tumor necrosis factor-α (TNFα) (human) (UniProt P01375). Nature of the assay: cell-based or functional assay.

Chain of human tumor necrosis factor-α (TNFα) (human) (P01375 77-233 limits assumed): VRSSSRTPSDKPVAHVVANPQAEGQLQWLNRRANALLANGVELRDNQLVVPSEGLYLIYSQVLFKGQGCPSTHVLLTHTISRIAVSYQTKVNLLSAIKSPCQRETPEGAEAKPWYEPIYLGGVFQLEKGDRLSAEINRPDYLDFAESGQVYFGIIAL

B1: chimeric mouse/human IgG1 anti-platelet mAb (7E3) (antibody, INN chains, looked up, V domains shown)
VH: EVQLQQSGTVLARPGASVKMSCEASGYTFTNYWMHWVKQRPGQGLEWIGAIYPGNSDTSYIQKFKGKAKLTAVTSTTSVYMELSSLTNEDSAVYYCTLYDGYYVFAYWGQGTLVTVSA
VL: EIVLTQSPVTLSVTPGDSVSLSCRASRDISNNLHWFQQTSHESPRLLIKYASQSMSGIPSRFSGSGSGTDFTLSINSVETEDFGMYFCQQTNSWPYTFGGGTKLEIK
modifications: full IgG1
As for B1, the IL-6 secreted by FS-4 fibroblasts, 0.3 ng/ml rhTNF with 4 µg/ml antibody was 1.6 ng/mL; the IL-6 secreted by FS-4 fibroblasts, 1.5 ng/ml rhTNF with 4 µg/ml antibody came out at 1.96 ng/mL; the IL-6 secreted by FS-4 fibroblasts, 7.5 ng/ml rhTNF with 4 µg/ml antibody was found to be 2.16 ng/mL.
